Source: patent publication US20250277030A1 (Zymeworks, published 2025)
Like-named read-outs stand apart in the source and are kept apart here.

Key:
[1] = molecular target: T1, human sodium-dependent phosphate transporter 2B (NaPi2b) (human, UniProt O95436 1-690); assay: flow cytometry, HEK293-6e cells transfected with human NaPi2b
T1 construct: UniProt ID is given as 095436 [sic]; also called hNaPi2b; Hu NaPi2b
T1 sequence: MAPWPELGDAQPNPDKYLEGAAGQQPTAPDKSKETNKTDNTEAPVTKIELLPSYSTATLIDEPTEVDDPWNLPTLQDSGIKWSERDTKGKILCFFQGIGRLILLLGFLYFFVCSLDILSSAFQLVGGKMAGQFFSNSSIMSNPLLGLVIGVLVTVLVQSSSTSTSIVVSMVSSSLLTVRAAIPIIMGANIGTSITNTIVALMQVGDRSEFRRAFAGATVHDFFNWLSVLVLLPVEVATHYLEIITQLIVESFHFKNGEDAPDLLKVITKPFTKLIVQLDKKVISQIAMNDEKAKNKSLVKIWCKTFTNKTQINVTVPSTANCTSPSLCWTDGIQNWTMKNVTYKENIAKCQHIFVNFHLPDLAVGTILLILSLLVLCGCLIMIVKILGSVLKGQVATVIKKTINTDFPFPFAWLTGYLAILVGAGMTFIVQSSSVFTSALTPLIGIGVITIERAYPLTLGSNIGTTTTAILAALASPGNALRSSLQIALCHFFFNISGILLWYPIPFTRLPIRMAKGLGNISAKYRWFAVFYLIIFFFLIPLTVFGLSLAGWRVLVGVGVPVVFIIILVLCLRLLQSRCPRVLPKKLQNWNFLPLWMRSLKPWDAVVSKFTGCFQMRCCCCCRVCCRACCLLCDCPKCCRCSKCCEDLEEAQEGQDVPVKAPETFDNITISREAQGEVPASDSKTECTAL
Method: (§1) The binding cross-reactivity of humanized antibody variant v29456 to human, cynomolgus and mouse NaPi2b was assessed by flow cytometry using HEK293-6e transfected cells.
(§2) Briefly, HEK293-6e cells were transfected for ˜24 hours to transiently express human NaPi2b, cynomolgus or mouse NaPi2b, at 1 μg of DNA per 1 million cells. Following transfection, 50,000 cells per well were seeded in V-bottom 96-well plates and incubated with 200 nM of primary antibody for 18-24 hours at 4° C. to prevent internalization. Post-incubation, cells were washed and stained with anti-Human IgG Fc AF647 conjugate (Jackson Immuno Research Labs, West Grove, PA, Cat. No. 109-605-098, Lot. No. 124868) at 4° C. for 1 hour. Following staining and washing, fluorescence was detected by flow cytometry on BD LSRFortessa™ Cell Analyzer (BD Biosciences, Franklin Lake, NJ) with 10,000 minimum events collected per well. The AF647/APC-A GeoMean (fluorescence signal geometric mean, proportional to anti-Human AF647 binding) was calculated for the live singlet cell population for each primary antibody using FlowJo™ v8 software (BD Biosciences, Franklin Lake, NJ). The Bmax and Kd of each primary antibody were calculated using GraphPad Prism Version 9 (GraphPad Software, San Diego, CA)

cynomolgus monkey NaPi2b [2] = molecular target: T2, cynomolgus monkey NaPi2b (cynomolgus monkey, UniProt O95436 1-690 (human entry)); assay: flow cytometry, HEK293-6e cells transfected with cynomolgus NaPi2b
T2 construct: Transiently expressed on HEK293-6e cells; also called Cyno NaPi2b
T2 chain: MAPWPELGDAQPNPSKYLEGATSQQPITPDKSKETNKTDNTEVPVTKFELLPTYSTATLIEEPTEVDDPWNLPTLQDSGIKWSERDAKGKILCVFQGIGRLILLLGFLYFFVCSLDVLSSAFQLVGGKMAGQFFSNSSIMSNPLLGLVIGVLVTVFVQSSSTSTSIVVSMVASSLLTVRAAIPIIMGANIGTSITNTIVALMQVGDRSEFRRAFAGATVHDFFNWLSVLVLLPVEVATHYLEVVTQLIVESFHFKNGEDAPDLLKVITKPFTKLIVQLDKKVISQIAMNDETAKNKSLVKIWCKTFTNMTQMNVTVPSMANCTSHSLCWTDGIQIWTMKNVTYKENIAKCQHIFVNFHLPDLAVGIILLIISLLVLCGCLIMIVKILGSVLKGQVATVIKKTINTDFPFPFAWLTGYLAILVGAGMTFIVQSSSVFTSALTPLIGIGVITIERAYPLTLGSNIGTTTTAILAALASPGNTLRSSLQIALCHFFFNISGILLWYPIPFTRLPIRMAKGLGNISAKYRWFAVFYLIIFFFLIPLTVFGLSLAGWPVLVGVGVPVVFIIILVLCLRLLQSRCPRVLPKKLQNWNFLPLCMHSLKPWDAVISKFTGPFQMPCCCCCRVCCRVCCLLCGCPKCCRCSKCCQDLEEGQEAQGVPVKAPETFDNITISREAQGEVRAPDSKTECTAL
Method: as §1, §2

[3] = molecular target: T1, human sodium-dependent phosphate …; assay: flow cytometry, HEK293-6e cells transfected with human NaPi2b; apparent Kd
Method: as §1, §2

[4] = molecular target: T1, human sodium-dependent phosphate …; assay: as above; remark: listed apart in the source
Method: The binding cross-reactivity of humanized antibody variant v38591 to human NaPi2b, NaPi2a, and NaPi2c was assessed by flow cytometry using HEK293-6e transfected cells.
Following transfection, cells were seeded at 50,000 cells/well in conical-bottom 96-well plates and treated with test antibody for 24 hours at 4° C. to prevent internalization. Following incubation, cells were washed and stained with anti-Human IgG Fc AF647 conjugate (Jackson Immuno Research Labs, West Grove, PA; Cat. No. 109-605-098) or anti-Rabbit IgG F(ab″)2 AF647 conjugate (Jackson Immuno Research Labs, West Grove, PA; Cat. No. 111-605-047). Following incubation and washing, fluorescence was detected by flow cytometry on a BD LSRFortessa™ Cell Analyzer (BD Biosciences, Franklin Lake, NJ) with 1,000 minimum events collected per well. The AF647/APC-A GeoMean (fluorescence signal geometric mean, proportional to anti-Human AF647 binding) was calculated for the live cell population using FlowJo™ Version 10.8.1 (BD Biosciences, Franklin Lake, NJ) and plotted for each test antibody using GraphPad Prism Version 9 (GraphPad Software, San Diego, CA).

cynomolgus monkey NaPi2b [5] = molecular target: T2, cynomolgus monkey NaPi2b; assay: flow cytometry, HEK293-6e cells transfected with cynomolgus NaPi2b; apparent Kd
Method: as §1, §2

mouse NaPi2b = molecular target: T3, mouse NaPi2b (mouse, UniProt Q9DBP0 1-697); assay: flow cytometry, HEK293-6e cells transfected with mouse NaPi2b; apparent Kd above the highest concentration tested
T3 construct: Transiently expressed on HEK293-6e cells; also called Ms NaPi2b
T3 sequence: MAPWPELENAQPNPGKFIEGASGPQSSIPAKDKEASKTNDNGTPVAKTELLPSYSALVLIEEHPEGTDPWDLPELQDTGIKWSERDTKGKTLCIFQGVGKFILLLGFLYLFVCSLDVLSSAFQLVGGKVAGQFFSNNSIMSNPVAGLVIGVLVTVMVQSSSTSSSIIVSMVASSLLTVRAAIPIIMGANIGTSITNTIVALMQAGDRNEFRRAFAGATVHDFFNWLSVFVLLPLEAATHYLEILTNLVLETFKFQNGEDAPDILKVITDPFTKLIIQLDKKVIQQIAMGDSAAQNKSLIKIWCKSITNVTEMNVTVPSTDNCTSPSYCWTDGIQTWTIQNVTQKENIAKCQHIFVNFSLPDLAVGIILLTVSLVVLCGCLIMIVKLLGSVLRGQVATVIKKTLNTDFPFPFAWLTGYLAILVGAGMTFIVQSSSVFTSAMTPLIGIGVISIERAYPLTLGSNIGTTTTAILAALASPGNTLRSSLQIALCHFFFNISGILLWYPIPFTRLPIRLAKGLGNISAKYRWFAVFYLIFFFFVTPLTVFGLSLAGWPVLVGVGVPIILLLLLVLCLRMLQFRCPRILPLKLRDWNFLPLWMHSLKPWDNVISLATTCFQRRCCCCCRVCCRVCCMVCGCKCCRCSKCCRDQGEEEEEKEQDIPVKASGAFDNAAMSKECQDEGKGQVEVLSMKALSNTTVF

Bmax (APC-A GeoMean) [1]: 1900 APC-A GeoMean
Bmax (APC-A GeoMean) (cynomolgus monkey NaPi2b [2]): 2360 APC-A GeoMean
Kd [3]: 1.98 nM
Kd [4]: 1.51 nM
Kd (cynomolgus monkey NaPi2b [5]): 31 nM
Kd (mouse NaPi2b): > 200 nM
B1: v18992, reference anti-NaPi2b antibody MX35 (antibody, human IgG1, kappa)
heavy 1: GQVQLVQSGAEVVKPGASVKMSCKASGYTFTGYNIHWVKQAPGQGLEWIGAIYPGNGDTSYKQKFRGRATLTADTSTSTVYMELSSLRSEDSAVYYCARGETARATFAYWGQGTLVTVSSASTKGPSVFPLAPSSKSTSGGTAALGCLVKDYFPEPVTVSWNSGALTSGVHTFPAVLQSSGLYSLSSVVTVPSSSLGTQTYICNVNHKPSNTKVDKKVEPKSCDKTHTCPPCPAPELLGGPSVFLFPPKPKDTLMISRTPEVTCVVVDVSHEDPEVKFNWYVDGVEVHNAKTKPREEQYNSTYRVVSVLTVLHQDWLNGKEYKCKVSNKALPAPIEKTISKAKGQPREPQVYVYPPSRDELTKNQVSLTCLVKGFYPSDIAVEWESNGQPENNYKTTPPVLDSDGSFALVSKLTVDKSRWQQGNVFSCSVMHEALHNHYTQKSLSLSPG
heavy 2: not shown
light: GDIQMTQSPSSLSASVGDRVTITCSASQDIGNFLNWYQQKPGKTVKVLIYYTSSLYSGVPSRFSGSGSGTDYTLTISSLQPEDFATYYCQQYSKLPLTFGQGTKLELKRTVAAPSVFIFPPSDEQLKSGTASVVCLLNNFYPREAKVQWKVDNALQSGNSQESVTEQDSKDSTYSLSSTLTLSKADYEKHKVYACEVTHQGLSSPVTKSFNRGEC
